Among the targets are MAPKAP-K2(h) (human, UniProt P49137 46-400); MAPKAP-K3(h) (human, UniProt Q16644 1-382, limits assumed); TrkB(h) (human, UniProt Q16620 455-822, limits assumed); CaMKI(h) (human, UniProt Q14012 1-370); IRAK1(h) (human, UniProt P51617 194-712, limits assumed); PASK(h) (human, UniProt Q96RG2 879-1323, limits assumed); PDGFRα(h) (human, UniProt P16234 550-1089, limits assumed); PKBγ(h) (human, UniProt Q9Y243 1-479, limits assumed); VRK2(h) (human, UniProt Q86Y07 1-508, limits assumed); EGFR(L861Q)(h) (human, UniProt P00533 696-1210, limits assumed); Abl(Q252H)(h) (human, UniProt P00519 27-1130, limits assumed).

Holding throughout (experiment): cell-based or functional assay
Another assay concerns the target T1, IRAK4(h) (human, UniProt Q9NWZ3 1-460, limits assumed).
T1 sequence (looked up): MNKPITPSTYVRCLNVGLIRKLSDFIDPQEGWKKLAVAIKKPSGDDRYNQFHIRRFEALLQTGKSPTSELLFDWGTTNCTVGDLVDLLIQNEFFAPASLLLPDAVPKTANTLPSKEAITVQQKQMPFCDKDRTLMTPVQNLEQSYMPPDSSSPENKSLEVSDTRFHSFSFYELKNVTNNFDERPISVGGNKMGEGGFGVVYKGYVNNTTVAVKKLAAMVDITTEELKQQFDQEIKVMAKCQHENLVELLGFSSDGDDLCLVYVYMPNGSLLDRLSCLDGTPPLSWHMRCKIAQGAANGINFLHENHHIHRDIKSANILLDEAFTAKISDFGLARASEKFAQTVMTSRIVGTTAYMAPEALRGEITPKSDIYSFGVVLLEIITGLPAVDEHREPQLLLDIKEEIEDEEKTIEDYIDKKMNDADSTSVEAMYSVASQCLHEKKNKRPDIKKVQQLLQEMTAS

For another assay, the target named is T2, SAPK4(h) (human, UniProt O15264 1-365).
T2 sequence (looked up): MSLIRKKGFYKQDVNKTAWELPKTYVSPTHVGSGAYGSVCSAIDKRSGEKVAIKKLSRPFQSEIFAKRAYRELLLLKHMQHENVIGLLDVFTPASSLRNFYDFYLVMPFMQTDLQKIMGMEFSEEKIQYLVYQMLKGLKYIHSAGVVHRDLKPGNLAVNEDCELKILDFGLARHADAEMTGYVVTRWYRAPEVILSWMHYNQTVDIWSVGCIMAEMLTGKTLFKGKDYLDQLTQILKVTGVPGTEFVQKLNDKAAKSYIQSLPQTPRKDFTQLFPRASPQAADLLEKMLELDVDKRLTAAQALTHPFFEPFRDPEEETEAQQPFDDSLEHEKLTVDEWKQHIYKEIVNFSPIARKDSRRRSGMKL

In a further assay the target is T3, SGK2(h) (human, UniProt Q9HBY8 1-367, limits assumed).
T3 sequence (looked up): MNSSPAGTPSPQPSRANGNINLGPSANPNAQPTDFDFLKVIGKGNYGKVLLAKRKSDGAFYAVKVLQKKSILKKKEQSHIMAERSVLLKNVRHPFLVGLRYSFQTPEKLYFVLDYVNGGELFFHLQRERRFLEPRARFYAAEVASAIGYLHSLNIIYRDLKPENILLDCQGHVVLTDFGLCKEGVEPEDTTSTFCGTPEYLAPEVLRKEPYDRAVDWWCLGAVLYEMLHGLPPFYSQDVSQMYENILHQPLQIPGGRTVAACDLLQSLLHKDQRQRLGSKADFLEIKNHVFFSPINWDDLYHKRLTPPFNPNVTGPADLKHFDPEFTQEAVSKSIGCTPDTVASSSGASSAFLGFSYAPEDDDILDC

In a further assay the target is T4, EphB1(h) (human, UniProt P54762 564-984, limits assumed).
T4 sequence (looked up): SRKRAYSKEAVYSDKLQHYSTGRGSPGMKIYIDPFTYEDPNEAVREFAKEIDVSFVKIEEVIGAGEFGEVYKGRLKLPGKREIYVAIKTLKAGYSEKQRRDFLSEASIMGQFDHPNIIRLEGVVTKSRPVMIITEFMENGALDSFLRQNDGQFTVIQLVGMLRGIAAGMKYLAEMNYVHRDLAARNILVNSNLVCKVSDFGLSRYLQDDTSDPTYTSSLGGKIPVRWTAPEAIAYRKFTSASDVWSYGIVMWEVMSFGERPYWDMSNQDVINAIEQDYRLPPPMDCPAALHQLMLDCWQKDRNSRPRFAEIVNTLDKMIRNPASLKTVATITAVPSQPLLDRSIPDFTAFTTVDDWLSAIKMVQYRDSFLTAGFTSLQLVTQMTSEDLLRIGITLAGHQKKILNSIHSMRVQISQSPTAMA

Data on two molecules can be found in US20140072613A1 (published 2014).

A value given as a limit tells only on which side of the number the result lay.

Take FAKLAARLYRKALARQLGVAA [MMI-0300]: the “inhibition of kinase activity at 100 µM” value in the assay with MAPKAP-K2(h), with MAPKAP-K3(h), with TrkB(h) and with CaMKI(h) was > 65% throughout. The “% activity, 100 µM” value is 95% with IRAK1(h); 59% with IRAK4(h); 29% with PASK(h); 65% with PDGFRα(h); 20% with PKBγ(h); 96% with SAPK4(h). Further, the “% activity, 100 µM” value came to 56% with SGK2(h); 161% in the assay with VRK2(h); 25% in the assay with EGFR(L861Q)(h); 44% with EphB1(h); 82% in the assay with Abl(Q252H)(h).
Turning to KAFAKLAARLYRKALARQLGVAA [MMI-0400], the “inhibition of kinase activity at 100 µM” value with MAPKAP-K2(h), in the assay with MAPKAP-K3(h), in the assay with TrkB(h) and in the assay with CaMKI(h) was > 65% throughout. In addition, the “% activity, 100 µM” value turned out to be 93% with IRAK1(h); 59% with IRAK4(h); 28% with PASK(h); 40% in the assay with PDGFRα(h); 41% with PKBγ(h); 91% with SAPK4(h). Also, the “% activity, 100 µM” value came out at 98% with SGK2(h); 185% in the assay with VRK2(h); 22% in the assay with EGFR(L861Q)(h); 58% with EphB1(h); 98% in the assay with Abl(Q252H)(h).
